This note sets out measurements from PMC12595441, “Glycosaminoglycans activate peptidylarginine deiminase 4 by enhancing calcium affinity” (Proceedings of the National Academy of Sciences of the …, 2025).

Where a chain is given by its changes, count along the chain named. Names may count otherwise.

Data set [1] addresses heparin. Kind of data set: SPR. Particulars: immobilized heparin.
In data set [2] the target is heparin. The data set is described as follows: heparin activation assay with BAEE substrate, Hill equation fit (apparent KD). The settings on record: 0.1 mM Ca2+.
Data set [3] deals with heparin. The data set is described as follows: heparin column chromatography (Poros heparin), salt gradient. Particulars: gradient of 2 M NaCl; parent: est. 31 min; read off a plot.
Data set [4] concerns the molecule itself. Kind of data set: SEC; analytical SEC in the presence of 5 µM heparin, Superdex 200 Increase 3.2/300, protein at 0.15 µM, 50 mM Tris pH 7.5, 300 mM NaCl, 0.1 mM CaCl2, 0.05% Tween20, 0.25 mM DTT; tryptophan fluorescence. (In gel filtration, larger molecules generally elute earlier.)
Data set [5] concerns the molecule itself. The data set is described as follows: SEC; analytical SEC without heparin, Superdex 200 Increase 3.2/300, protein at 0.15 µM, 50 mM Tris pH 7.5, 300 mM NaCl, 0.1 mM CaCl2, 0.05% Tween20, 0.25 mM DTT; tryptophan fluorescence; compared with HMW calibration standards.

Consider “peptidylarginine deiminase 4 (PAD4), recombinant human, wild type (from UniProt Q9UM07) K59S; K60S; K61S; K81S; K91S”, for which, in the data set with heparin [1], the Kd is 0.0118 µM; the koff (as a rule, the first-order rate constant of dissociation) is 6.7 × 10^-4; the kon (× 10^4 M^-1s^-1) was 5.6. Also, in the data set with heparin [2], the Kd is 0.0061 µM.
For “peptidylarginine deiminase 4 (PAD4), recombinant human, wild type (from UniProt Q9UM07) K126S; K128S; R131S; K134S; R137S”, in the data set with heparin [1], the Kd amounted to 0.0135 µM, the off-rate (koff) is 3.9 × 10^-4 and the kon (× 10^4 M^-1s^-1) worked out at 3.1. Further, in the data set with heparin [2], the Kd was determined as 0.0075 µM.
On to “peptidylarginine deiminase 4 (PAD4), recombinant human, wild type (from UniProt Q9UM07) R8E”, for which, in the data set with heparin [1], the Kd is 0.0157 µM, the koff was 4.2 × 10^-4, the kon (× 10^4 M^-1s^-1) is 2.6 and the response amounted to 659 RU. Further, the Kd in the data set with heparin [2] is 0.0135 µM.
Consider “peptidylarginine deiminase 4 (PAD4), recombinant human, wild type (from UniProt Q9UM07) R8E; Y435A”, for which, in the data set with heparin [1], the Kd was determined as 0.0155 µM, the koff is 4.5 × 10^-4, the kon (× 10^4 M^-1s^-1) turned out to be 3 and the response was 802 RU.
In the case of “peptidylarginine deiminase 4 (PAD4), recombinant human, wild type (from UniProt Q9UM07) R123S; K126S; K128S”, in the data set with heparin [1], the Kd amounted to 0.0144 µM, the koff was 4.6 × 10^-4, the kon (× 10^4 M^-1s^-1) stood at 3 and the response is 328 RU. Further, the other: peak elution time from heparin column with heparin [3] was found to be 29 min. Besides, the Kd with heparin [2] was found to be 0.0062 µM.
For “peptidylarginine deiminase 4 (PAD4), recombinant human, wild type (from UniProt Q9UM07) Y435A”, in the data set with heparin [1], the Kd is 0.0166 µM, the koff was 4.5 × 10^-4, the kon (× 10^4 M^-1s^-1) stood at 2.8 and the response was determined as 786 RU. Also, the Kd with heparin [2] is 0.0133 µM.

B1: PAD4^59/60/61/81/91 (K59S K60S K61S K81S K91S) (enzyme, human, UniProt Q9UM07 1-663, looked up)
chain: MAQGTLIRVTPEQPTHAVCVLGTLTQLDICSSAPEDCTSFSINASPGVVVDIAHGPPASSSSTGSSTWPLDPGVEVTLTMSVASGSTGDQSVQISYYGPKTPPVKALLYLTGVEISLCADITRTGKVKPTRAVKDQRTWTWGPCGQGAILLVNCDRDNLESSAMDCEDDEVLDSEDLQDMSLMTLSTKTPKDFFTNHTLVLHVARSEMDKVRVFQATRGKLSSKCSVVLGPKWPSHYLMVPGGKHNMDFYVEALAFPDTDFPGLITLTISLLDTSNLELPEAVVFQDSVVFRVAPWIMTPNTQPPQEVYACSIFENEDFLKSVTTLAMKAKCKLTICPEEENMDDQWMQDEMEIGYIQAPHKTLPVVFDSPRNRGLKEFPIKRVMGPDFGYVTRGPQTGGISGLDSFGNLEVSPPVTVRGKEYPLGRILFGDSCYPSNDSRQMHQALQDFLSAQQVQAPVKLYSDWLSVGHVDEFLSFVPAPDRKGFRLLLASPRSCYKLFQEQQNEGHGEALLFEGIKKKKQQKIKNILSNKTLREHNSFVERCIDWNRELLKRELGLAESDIIDIPQLFKLKEFSKAEAFFPNMVNMLVLGKHLGIPKPFGPVINGRCCLEEKVCSLLEPLGLQCTFINDFFTYHIRHGEVHCGTNVRRKPFSFKWWNMVP
notes: Full length human PAD4 (GenBank NM_012387) with K59S K60S K61S K81S K91S; source: E. coli BL21(DE3), purified (HisTrap FF, HiTrap Heparin HP, Superdex 200 SEC)
As to B1, the stoichiometry N (usually the number of molecules, sites or subunits per partner or assembly) was ≤ 4 in data set [4] and 4 in data set [5].

B2: PAD4^123/126/128 (R123S K126S K128S) (enzyme, human, UniProt Q9UM07 1-663, looked up)
chain: B1 chain with S59K, S60K, S61K, S81K, S91K, R123S, K126S, K128S
notes: Full length human PAD4 (GenBank NM_012387) with R123S K126S K128S; source: E. coli BL21(DE3), purified (HisTrap FF, HiTrap Heparin HP, Superdex 200 SEC)
With B2, in data set [4], the binding result is reported as “binds”.

B3: PAD4^126/128/131/134/137 (K126S K128S R131S K134S R137S) (enzyme, human, UniProt Q9UM07 1-663, looked up)
chain: B1 chain with S59K, S60K, S61K, S81K, S91K, K126S, K128S, R131S, K134S, R137S
notes: Full length human PAD4 (GenBank NM_012387) with K126S K128S R131S K134S R137S; source: E. coli BL21(DE3), purified (HisTrap FF, HiTrap Heparin HP, Superdex 200 SEC)
Turning to B3, the “stoichiometry N” value is ≤ 4 in data set [4] and 4 in data set [5].
